Results on 1 protein are retold here after publication PMC8189185 (Structure (London, England : 1993), 2017).

The data set concerns the molecule itself. As to the kind of experiment: cryo-EM structure.

B1: PilA, major pilin subunit of the Pseudomonas aeruginosa strain K (PaK) Type IV pilus (natural protein)
chain: FTLIELMIVVAIIGILAAIAIPQYQNYVARSEGASALASVNPLKTTVEEALSRGWSVKSGTGTEDATKKEVPLGVAADANKLGTIALKPDPADGTADITLTFTMGGAGPKNKGKIITLTRTAADGLWKCTSDQDEQFIPKGCSR
Turning to B1, the binding result was “binds”.
